Drawing on ChEMBL document CHEMBL1154924, “Carbonic anhydrase activators: Activation of the beta-carbonic anhydrase from the pathogenic yeast Candida glabrata with amines and amino acids” (Bioorg Med Chem Lett, 2010), this text covers Km for 3 proteins.

Substrate in series [1]: NCCc1c[nH]cn1
The note with it: Nakaseomyces glabratus.
Description: Activity at Candida glabrata recombinant carbonic anhydrase

Substrate in series [2]: NCCc1c[nH]cn1
The following applies: Methanothermobacter thermautotrophicus.
Description: Activity at archaea Methanobacterium thermoautotrophicum recombinant carbonic anhydrase

Substrate in series [3]: NCCc1c[nH]cn1
Description: Activity at Saccharomyces cerevisiae recombinant Nce103p
The note with it: Saccharomyces cerevisiae.

B1: Carbonic anhydrase (Candida glabrata CBS 138), Q6FTL6 (protein)
chain: MTKDTIFTLTGKCALDNILDANRQWAQAMHRSQPQLFPTNGQGQDPHTLFIGCSDSRYNEDCLGVLPGEIFTLKTVANICHTDDHSLLATLEFAILNLKVNRIILCGHTDCGGIKTCLLGRESIKESCPHLYEHLDDIEDLVESHESELNQLDNICSKSKLMSHRNVERQLQRLLQIPVVQDALRNSNQDHEFNIFGLVYNVDSGLVDVVREVYGNQQK
As to B1, in series [1], the Michaelis-Menten constant (Km) (in general, the substrate concentration at which the rate is half of its maximum) was 7.9 mM.

B2: Carbonic anhydrase (Methanobacterium thermoautotrophicum), Q50565 (protein)
chain: MRFVSMIIKDILRENQDFRFRDLSDLKHSPKLCIITCMDSRLIDLLERALGIGRGDAKVIKNAGNIVDDGVIRSAAVAIYALGVNEIIIVGHTDCGMARLDEDLIVSRMRELGVEEEVIENFSIDVLNPVGDEEENVIEGVKRLKSSPLIPESIGVHGLIIDINTGRLKPLYLDED
As for B2, the Km in series [2] is 1.7 mM.

B3: Carbonic anhydrase (Saccharomyces cerevisiae S288c), P53615 (protein)
chain: MSATESSSIFTLSHNSNLQDILAANAKWASQMNNIQPTLFPDHNAKGQSPHTLFIGCSDSRYNENCLGVLPGEVFTWKNVANICHSEDLTLKATLEFAIICLKVNKVIICGHTDCGGIKTCLTNQREALPKVNCSHLYKYLDDIDTMYHEESQNLIHLKTQREKSHYLSHCNVKRQFNRIIENPTVQTAVQNGELQVYGLLYNVEDGLLQTVSTYTKVTPK
B3: the Km in series [3] was 9.5 mM.
